{
  "source": "paper doi:10.1101/2021.10.11.463953",
  "target": "Acinetobacter sp. Ver3 iron superoxide dismutase (^AV3SodB) (Acinetobacter sp. Ver3)",
  "assay": "crystal structure",
  "data": [
    {"substance": "Acinetobacter sp. Ver3 iron superoxide dismutase (^AV3SodB) (enzyme)", "values": [
      {"measurement": "stoichiometry N", "value": 2}
    ]}
  ]
}
